# Laboratory results taken from publication PMC3463529.
# What was measured:
# Assay in all cases: SEC; Superose12 10/300 GL, lysis buffer for native purification, 0.4 ml/min; concentrated Ni2+-NTA eluate of GFP-perlucin (~20 mg/ml); peak fractions analysed by SDS-PAGE; sizes estimated against gel filtration standards (12 kDa - 2 MDa)
# [1] = target: truncated His-tagged GFP-perlucin lacking 141 C-terminal amino acids (Aequorea victoria | Haliotis laevigata) (UniProt P82596)
# [2] = target: full length His-tagged GFP-perlucin (410 amino acids, 46.8 kDa) (Aequorea victoria | Haliotis laevigata) (UniProt P82596)
# [3] = target: His-tagged GFP-perlucin derivative lacking 15 C-terminal amino acids (395 amino acids, 45 kDa) (Aequorea victoria | Haliotis laevigata) (UniProt P82596)
# [4] = target: truncated His-tagged GFP-perlucin lacking 145 C-terminal amino acids (Aequorea victoria | Haliotis laevigata) (UniProt P82596)
stoichiometry N (polypeptide chains) [1],"polypeptide chains in the complex (peak A, 395aa/410aa and truncated variants together) (polypeptide chains) [2]","polypeptide chains in the complex (peak A, 395aa/410aa and truncated variants together) (polypeptide chains) [3]",stoichiometry N (polypeptide chains) [4],Substance
3 to 5,50,50,–,truncated His-tagged GFP-perlucin lacking 141 C-terminal amino acids (from UniProt P82596 1-14)
–,50,50,3 to 5,truncated His-tagged GFP-perlucin lacking 145 C-terminal amino acids (from UniProt P82596 1-10)
